In patent US20160060340A1 (Kyowa Kirin, published 2016):
Where a chain is given by its changes, count along the chain named. Names and notes keep the numbering of the source.

B1: ChRA15-7DF antibody (antibody, human IgG1, V domains shown)
VH: EVKLLESGGGLVQPGGSMRLSCAASGFTFTDFYMNWIRQPAGKAPEWLGFIRNKANGYTTEFNPSVKGRFAISRDNTQNMLYLQMNTLRAEDTATYYCARCLYGYAYYYVMDAWGQGTSVTVSS
VL: DIQMTQSPASLSASLGETVTIECRTSEDIFRNLAWYQQRPGNSPQLLIYDTNRLADGVPSRFSGSGSGTQYSLKINSLQSEDVAGYFCQQYDNYPLTFGSGTKLEIK
notes: sugar chain without fucose, made in CHO/Ms704 cells; also called defucosylated rat/human chimeric RA15-7
B2: C101A (antibody, V domains shown)
VH: EVQLVESGGGLVQPGGSLRLSCAASGFTFTDFYMNWVRQPPGKAPEWLGFIRNKANGYTTEFNPSVKGRFTISRDNSKNSLYLQMNSLKTEDTATYYCARALYGYAYYYVMDAWGQGTLVTVSS
VL: DIQMTQSPSSLSASLGDRVTITCRTSEDIFRNLAWYQQKPGKAPKLLIYDTNRLADGVPSRFSGSGSGTDYTLTISSLQPEDFATYFCQQYDNYPLTFGQGTKLEIK
notes: also called HV7LV3-CDRH3-Cys101 modified antibody C101A; antibody in which Cys101 was modified with Ala
B3: HuRA15-7CTDF antibody (antibody, human IgG1, V domains shown)
VH: B2 VH with A101T
VL: B2 VL
notes: defucosylated, made in CHO/Ms704 cells; also called defucosylated HuRA15-7CT
B4: HV7LV3-CDRH3-Cys101 modified antibody C101F (antibody, human IgG1, V domains shown)
VH: B2 VH with A101F
VL: B2 VL
notes: Human IgG1 kappa constant regions of pKANTEX93; transiently made in FUT8 double-knockout CHO-K1 cells; also called antibody in which Cys101 was modified with Phe
B5: HV7LV3-CDRH3-Cys101 modified antibody C101I (antibody, human IgG1, V domains shown)
VH: B2 VH with A101I
VL: B2 VL
notes: Human IgG1 kappa constant regions of pKANTEX93; transiently made in FUT8 double-knockout CHO-K1 cells; also called antibody in which Cys101 was modified with Ile
B6: modified humanized RA15-7 antibody HV10LV4 (antibody, human IgG1, V domains shown)
VH: B2 VH with L18M, V37I, P41A, A101C
VL: B2 VL with K45Q
notes: Human IgG1 kappa constant regions of pKANTEX93; transiently made in FUT8 double-knockout CHO-K1 cells
B7: HV7LV3-CDRH3-Cys101 modified antibody C101M (antibody, human IgG1, V domains shown)
VH: B2 VH with A101M
VL: B2 VL
notes: Human IgG1 kappa constant regions of pKANTEX93; transiently made in FUT8 double-knockout CHO-K1 cells; also called antibody in which Cys101 was modified with Met
B8: HV7LV3-CDRH3-Cys101 modified antibody C101T (HuRA15-7CT) (antibody, human IgG1, V domains shown)
VH: B2 VH with A101T
VL: B2 VL
modifications: Expressed in FUT8-knockout CHO-K1 cells (Fc glycan without core fucose); not carried by the letters.
notes: Human IgG1 kappa constant regions of pKANTEX93; transiently made in FUT8 double-knockout CHO-K1 cells; Same vector as HuRA15-7CTDF; also called antibody in which Cys101 was modified with Thr
B9: modified humanized RA15-7 antibody HV10LV6 (antibody, human IgG1, V domains shown)
VH: B2 VH with L18M, V37I, P41A, A101C
VL: B2 VL with A43S, K45Q, T85G
notes: as for B6
B10: HV7LV3-CDRH3-Cys101 modified antibody C101Q (antibody, human IgG1, V domains shown)
VH: B2 VH with A101Q
VL: B2 VL
notes: Human IgG1 kappa constant regions of pKANTEX93; transiently made in FUT8 double-knockout CHO-K1 cells; also called antibody in which Cys101 was modified with Gln
B11: modified humanized RA15-7 antibody HV10LV2 (antibody, human IgG1, V domains shown)
VH: B2 VH with L18M, V37I, P41A, A101C
VL: B2 VL with L15V, K45Q, F87Y
notes: as for B6
B12: modified humanized RA15-7 antibody HV10LV3 (antibody, human IgG1, V domains shown)
VH: B2 VH with L18M, V37I, P41A, A101C
VL: B2 VL
notes: as for B6
B13: HV7LV3-CDRH3-Cys101 modified antibody C101V (antibody, human IgG1, V domains shown)
VH: B2 VH with A101V
VL: B2 VL
notes: Human IgG1 kappa constant regions of pKANTEX93; transiently made in FUT8 double-knockout CHO-K1 cells; also called antibody in which Cys101 was modified with Val
B14: C101G (antibody, V domains shown)
VH: B2 VH with A101G
VL: B2 VL
notes: also called HV7LV3-CDRH3-Cys101 modified antibody C101G; antibody in which Cys101 was modified with Gly
B15: C101P (antibody, V domains shown)
VH: B2 VH with A101P
VL: B2 VL
notes: also called HV7LV3-CDRH3-Cys101 modified antibody C101P; antibody in which Cys101 was modified with Pro
B16: MORAb-003 antibody (antibody, V domains shown)
VH: EVQLVESGGGVVQPGRSLRLSCSASGFTFSGYGLSWVRQAPGKGLEWVAMISSGGSYTYYADSVKGRFAISRDNAKNTLFLQMDSLRPEDTGVYFCARHGDDPAWFAYWGQGTPVTVSS
VL: DIQLTQSPSSLSASVGDRVTITCSVSSSISSNNLHWYQQKPGKAPKPWIYGTSNLASGVPSRFSGSGSGTDYTFTISSLQPEDIATYYCQQWSSYPYMYTFGQGTKVEIKR

Experiments:
[1] = target: T1, cynomolgus monkey FOLR1-Fc (cynomolgus monkey; human); assay: ELISA, antigen coated at 2 ug/mL, antibody 1.4-1000 ng/mL, goat anti-human kappa-HRP, ABTS, absorbance at 415 nm [c]
T1 construct: Expressed in CHO/Ms704 cells; also called CyFOLR1-Fc; not shown: Human IgG1 Fc (Hinge region and CH2-CH3 region) from pKANTEX93, added to the C-terminus
Experimental: (§1) First, each 50 μL/well of FOLR1-Fc, FOLR2-Fc, FOLR3-Fc, and cynomolgus monkey FOLR1-Fc which were prepared at a concentration of 2 μg/mL using PBS was added in a 96-well plate for ELISA and incubated at 4° C. overnight. It was washed with PBS, and then 200 μL/well of 1% BSA/PBS wad added at room temperature for 1 hour for blocking. It was washed with PBS again, and each 50 μL/well of HuRA15-7CTDF antibody, ChRA15-7DF antibody, MORAb-003DF antibody, and defucosylated anti-DNP human IgG1 (DNPDF) antibody as a negative control which were prepared by seven-step dilution (1.4, 4.1, 12, 37, 111, 333, 1000 ng/mL) in 1% BSA/PBS was added, and allowed to react at room temperature for 1 hour.
(§2) Each well was washed with 0.05% tween20/PBS, and then 50 μL/well of Goat anti-Human kappa-HRP (Southern Biotech) which was diluted 2000-fold using 1% BSA/PBS was added and allowed to react at room temperature for 1 hour. Each well was washed with PBS, and then 50 μL/well of ABTS substrate solution was added, and allowed to react at room temperature. After sufficient color development was confirmed, 5% SDS solution was added to terminate the reaction, and absorbance at 415 nm was measured.

[2] = target: T2, FOLR1-mycHis (human, UniProt P15328 25-233); assay: SPR (Biacore), antibody captured by Human Antibody Capture Kit on a CM5 chip, FOLR1-mycHis as analyte (12.3-1000 ng/mL, as in Example 29); affinity relative to ChRA15-7Acc = 100
T2 construct: Secreted from CHO/DG44 cells, purified on Ni-NTA; Residues 1-233 include the native signal peptide; also called non-reducing FOLR1-mycHis; recombinant protein having myc and His tag at the C-terminus of FOLR1 (1-233 amino acids); not shown: myc and His tag at the C-terminus
Experimental: (§3) The affinities of ChRA15-7Acc antibody and MORAb-003 antibody for FOLR1 were measured by a surface plasmon resonance method. The measurement was carried out in the same manner as in Example 16, except that a Human Antibody Capture Kit (GE Healthcare) was immobilized onto the CM5 chip by amine coupling and FOLR1-mycHis prepared by five-step dilution (12.3, 37, 111, 333, 1000 ng/mL) was applied as an analyte.
(§4) Affinities of HV7LV3-CDRH3-Cys101 modified antibodies for FOLR1 were measured by the surface plasmon resonance method in the same manner as in Example 29.

[3] = target: T1, cynomolgus monkey FOLR1-Fc; assay: ELISA, antigen coated at 2 ug/mL, antibody 1.4-1000 ng/mL, goat anti-human kappa-HRP, ABTS, absorbance at 415 nm [d]
Experimental: as §1, §2

[4] = target: T2, FOLR1-mycHis; assay: surface plasmon resonance as in Example 29
Experimental: as §3, §4

[5] = target: T2, FOLR1-mycHis; assay: SPR as in Example 29, antibody captured, FOLR1-mycHis as analyte
Experimental: as §3, §4

[6] = target: T2, FOLR1-mycHis; assay: SPR (Biacore T100), antibody captured with Human Antibody Capture Kit, FOLR1-mycHis as analyte, 1:1 binding model
Experimental: The affinity was analyzed from association constant (Ka) and dissociation constant (Kd) by Single-cycle kinetics. Kinetic constants (ka, kd, KD) were calculated by 1:1 binding model using a Biacore T-100 Evaluation software (GE Healthcare).
as §3

T2 sequence (P15328 25-233): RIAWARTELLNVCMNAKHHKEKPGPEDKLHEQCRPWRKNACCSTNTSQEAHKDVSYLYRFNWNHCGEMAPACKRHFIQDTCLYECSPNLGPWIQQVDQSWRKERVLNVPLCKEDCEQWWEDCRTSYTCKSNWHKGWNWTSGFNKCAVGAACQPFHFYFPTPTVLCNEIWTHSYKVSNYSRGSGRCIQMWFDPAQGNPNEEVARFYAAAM
T1 sequence (chain, as listed by the source): as the sequence (P15328 25-233) above, with I2T, W4R, R37K, A146P, H171Y counted along it

Row | Binder | affinity as percent of the affinity of ChRA15-7Acc antibody [4] | affinity as percent of the affinity of ChRA15-7Acc antibody [5] [%] | further results
1 | B1 | – | – | binding result [1]: binds
2 | B2 | – | – | binding result [2]: binds
3 | B3 | – | – | binding result [3]: binds
4 | B4 | ≥ 50 % of the affinity of ChRA15-7Acc antibody | 80 | –
5 | B5 | ≥ 50 % of the affinity of ChRA15-7Acc antibody | 73 | –
6 | B6 | – | – | affinity as percent of the affinity of ChRA15-7Acc [5]: ~70%
7 | B7 | ≥ 50 % of the affinity of ChRA15-7Acc antibody | 59 | –
8 | B8 | ≥ 50 % of the affinity of ChRA15-7Acc antibody | 88 | –
9 | B9 | – | – | affinity as percent of the affinity of ChRA15-7Acc [5]: ~70%
10 | B10 | ≥ 50 % of the affinity of ChRA15-7Acc antibody | 64 | –
11 | B11 | – | – | affinity as percent of the affinity of ChRA15-7Acc [5]: ~70%
12 | B12 | – | – | affinity as percent of the affinity of ChRA15-7Acc [5]: ~70%
13 | B13 | ≥ 50 % of the affinity of ChRA15-7Acc antibody | 55 | –
14 | B14 | – | – | binding result [2]: binds
15 | B15 | – | – | binding result [2]: no binding
16 | B16 | – | – | Kd [6]: 57 nM; koff [6]: 0.0259 s⁻¹
